The target in this assay is HSP90–CDC37–BRAF^V600E complex (human) (UniProt P08238). Briefly: cryo-EM structure; HSP90–CDC37–BRAF^V600E complex incubated with PP5 D274N, purified by SEC, cross-linked with 1 mM BS3; one sample gave three classes: HCK (3.4 Å), HCK-P open (4.2 Å), HCK-P closed (3.9 Å); PP5 modelled by rigid-body docking.
Sequence of HSP90–CDC37–BRAF^V600E complex (human) (P08238 whole entry, chain 1 of 3): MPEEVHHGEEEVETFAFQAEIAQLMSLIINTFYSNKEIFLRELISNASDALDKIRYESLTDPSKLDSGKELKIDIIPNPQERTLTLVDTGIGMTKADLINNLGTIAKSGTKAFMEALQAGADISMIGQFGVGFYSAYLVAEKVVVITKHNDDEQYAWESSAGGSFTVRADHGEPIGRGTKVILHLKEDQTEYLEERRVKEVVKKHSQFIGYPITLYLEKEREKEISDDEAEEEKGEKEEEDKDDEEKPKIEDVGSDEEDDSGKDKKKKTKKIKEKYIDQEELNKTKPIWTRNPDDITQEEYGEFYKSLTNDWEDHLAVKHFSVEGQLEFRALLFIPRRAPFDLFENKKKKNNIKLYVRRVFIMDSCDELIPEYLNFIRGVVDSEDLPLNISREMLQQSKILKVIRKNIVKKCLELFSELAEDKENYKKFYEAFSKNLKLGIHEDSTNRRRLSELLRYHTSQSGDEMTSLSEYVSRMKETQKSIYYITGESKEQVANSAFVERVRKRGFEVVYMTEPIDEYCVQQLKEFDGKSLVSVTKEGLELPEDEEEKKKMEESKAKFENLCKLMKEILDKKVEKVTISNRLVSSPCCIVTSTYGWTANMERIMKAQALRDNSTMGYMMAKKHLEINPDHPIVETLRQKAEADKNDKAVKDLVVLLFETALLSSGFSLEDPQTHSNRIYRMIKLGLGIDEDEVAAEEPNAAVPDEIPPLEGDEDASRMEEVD
Sequence of HSP90–CDC37–BRAF^V600E complex (human) (Q16543 whole entry, chain 2 of 3, further chain): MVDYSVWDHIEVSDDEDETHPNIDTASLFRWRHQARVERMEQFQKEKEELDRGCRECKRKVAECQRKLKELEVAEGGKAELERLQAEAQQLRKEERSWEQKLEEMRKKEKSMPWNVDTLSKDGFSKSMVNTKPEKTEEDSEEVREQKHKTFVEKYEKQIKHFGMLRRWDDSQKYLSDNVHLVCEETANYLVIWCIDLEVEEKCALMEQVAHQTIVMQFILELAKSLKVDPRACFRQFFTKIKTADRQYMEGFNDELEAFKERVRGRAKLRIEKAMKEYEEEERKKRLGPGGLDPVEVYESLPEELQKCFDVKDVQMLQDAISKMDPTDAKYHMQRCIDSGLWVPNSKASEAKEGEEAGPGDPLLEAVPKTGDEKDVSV
Sequence of HSP90–CDC37–BRAF^V600E complex (human) (P15056 whole entry V600E, chain 3 of 3, further chain): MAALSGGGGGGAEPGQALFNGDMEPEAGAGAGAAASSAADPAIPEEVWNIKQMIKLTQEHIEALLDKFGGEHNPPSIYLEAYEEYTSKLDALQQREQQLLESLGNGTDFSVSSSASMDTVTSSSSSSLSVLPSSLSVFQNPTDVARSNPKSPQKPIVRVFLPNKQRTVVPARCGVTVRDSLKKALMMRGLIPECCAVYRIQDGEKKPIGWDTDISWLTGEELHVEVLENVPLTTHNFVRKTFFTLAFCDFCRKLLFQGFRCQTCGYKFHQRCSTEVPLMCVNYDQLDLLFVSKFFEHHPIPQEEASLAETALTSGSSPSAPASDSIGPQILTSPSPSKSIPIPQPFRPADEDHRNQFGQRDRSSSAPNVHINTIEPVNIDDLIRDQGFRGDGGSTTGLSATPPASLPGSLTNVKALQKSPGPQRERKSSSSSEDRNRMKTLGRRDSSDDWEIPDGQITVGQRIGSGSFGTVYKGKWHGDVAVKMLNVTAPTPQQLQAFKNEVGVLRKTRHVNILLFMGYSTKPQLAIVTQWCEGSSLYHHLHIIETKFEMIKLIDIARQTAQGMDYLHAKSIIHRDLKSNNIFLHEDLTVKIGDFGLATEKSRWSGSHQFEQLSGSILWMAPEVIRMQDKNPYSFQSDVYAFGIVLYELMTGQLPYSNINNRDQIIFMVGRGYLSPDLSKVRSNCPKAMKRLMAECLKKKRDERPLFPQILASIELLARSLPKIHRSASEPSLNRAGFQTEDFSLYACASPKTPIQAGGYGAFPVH

B1: PP5 D274N (enzyme)
chain: RDEPPADGALKRAEELKTQANDYFKAKDYENAIKFYSQAIELNPSNAIYYGNRSLAYLRTECYGYALGDATRAIELDKKYIKGYYRRAASNMALGKFRAALRDYETVVKVKPHDKDAKMKYQECNKIVKQKAFERAIAGDEHKRSVVDSLDIESMTIEDEYSGPKLEDGKVTISFMKELMQWYKDQKKLHRKCAYQILVQVKEVLSKLSTLVETTLKETEKITVCGDTHGQFYDLLNIFELNGLPSETNPYIFNGDFVNRGSFSVEVILTLFGFKLLYPDHFHLLRGNHETDNMNQIYGFEGEVKAKYTAQMYELFSEVFEWLPLAQCINGKVLIMHGGLFSEDGVTLDDIRKIERNRQPPDSGPMCDLLWSDPQPQNGRSISKRGVSCQFGPDVTKAFLEENNLDYIIRSHEVKAEGYEVAHGGRCVTVFSAPNYCDQMGNKASYIHLQGSDLRPQFHQFTAVPHPNVKPMAYANTLLQLGMM
What is called stoichiometry N is a count of units in the complex or per binding partner. With B1, the stoichiometry N amounted to 1.

The values above are taken from article PMC9709061.
